The values below come from PMC10183039.

In this test the target is Grp78 (rat (endogenous in hippocampus)) (UniProt P06761). Put plainly: co-IP; primary antibody on Protein A/G magnetic beads in PBS with 0.3% Triton X-100; hippocampal tissue of 3-month-old male rats (WT; APP KO or SNCA KO for comparison) homogenized in RIPA lysis buffer; lysate with beads overnight at 4 °C; four washes with PBST; western blotting. For orientation: In western blotting, separated proteins are transferred to a membrane and probed.
Grp78 (rat (endogenous in hippocampus)), sequence (P06761 19-654): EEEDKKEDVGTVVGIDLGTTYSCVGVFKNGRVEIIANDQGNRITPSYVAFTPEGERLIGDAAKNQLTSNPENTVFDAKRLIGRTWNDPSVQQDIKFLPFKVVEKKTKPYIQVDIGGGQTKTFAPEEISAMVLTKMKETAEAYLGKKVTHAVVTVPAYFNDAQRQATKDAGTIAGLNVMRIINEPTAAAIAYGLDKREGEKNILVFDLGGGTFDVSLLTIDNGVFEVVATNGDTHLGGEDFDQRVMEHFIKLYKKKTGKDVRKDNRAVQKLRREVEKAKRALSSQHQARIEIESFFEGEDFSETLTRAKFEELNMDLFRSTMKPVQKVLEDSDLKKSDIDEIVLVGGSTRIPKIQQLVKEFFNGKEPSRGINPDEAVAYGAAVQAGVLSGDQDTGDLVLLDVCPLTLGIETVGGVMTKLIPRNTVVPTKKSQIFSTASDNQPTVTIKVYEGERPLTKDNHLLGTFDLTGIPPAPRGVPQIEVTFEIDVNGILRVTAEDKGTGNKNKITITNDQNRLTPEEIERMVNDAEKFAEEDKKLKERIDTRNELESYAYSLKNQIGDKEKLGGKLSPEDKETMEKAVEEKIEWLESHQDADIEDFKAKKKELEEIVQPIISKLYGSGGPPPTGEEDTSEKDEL

IP3R1, P29994 1-2750 (receptor), sequence (P29994 whole entry): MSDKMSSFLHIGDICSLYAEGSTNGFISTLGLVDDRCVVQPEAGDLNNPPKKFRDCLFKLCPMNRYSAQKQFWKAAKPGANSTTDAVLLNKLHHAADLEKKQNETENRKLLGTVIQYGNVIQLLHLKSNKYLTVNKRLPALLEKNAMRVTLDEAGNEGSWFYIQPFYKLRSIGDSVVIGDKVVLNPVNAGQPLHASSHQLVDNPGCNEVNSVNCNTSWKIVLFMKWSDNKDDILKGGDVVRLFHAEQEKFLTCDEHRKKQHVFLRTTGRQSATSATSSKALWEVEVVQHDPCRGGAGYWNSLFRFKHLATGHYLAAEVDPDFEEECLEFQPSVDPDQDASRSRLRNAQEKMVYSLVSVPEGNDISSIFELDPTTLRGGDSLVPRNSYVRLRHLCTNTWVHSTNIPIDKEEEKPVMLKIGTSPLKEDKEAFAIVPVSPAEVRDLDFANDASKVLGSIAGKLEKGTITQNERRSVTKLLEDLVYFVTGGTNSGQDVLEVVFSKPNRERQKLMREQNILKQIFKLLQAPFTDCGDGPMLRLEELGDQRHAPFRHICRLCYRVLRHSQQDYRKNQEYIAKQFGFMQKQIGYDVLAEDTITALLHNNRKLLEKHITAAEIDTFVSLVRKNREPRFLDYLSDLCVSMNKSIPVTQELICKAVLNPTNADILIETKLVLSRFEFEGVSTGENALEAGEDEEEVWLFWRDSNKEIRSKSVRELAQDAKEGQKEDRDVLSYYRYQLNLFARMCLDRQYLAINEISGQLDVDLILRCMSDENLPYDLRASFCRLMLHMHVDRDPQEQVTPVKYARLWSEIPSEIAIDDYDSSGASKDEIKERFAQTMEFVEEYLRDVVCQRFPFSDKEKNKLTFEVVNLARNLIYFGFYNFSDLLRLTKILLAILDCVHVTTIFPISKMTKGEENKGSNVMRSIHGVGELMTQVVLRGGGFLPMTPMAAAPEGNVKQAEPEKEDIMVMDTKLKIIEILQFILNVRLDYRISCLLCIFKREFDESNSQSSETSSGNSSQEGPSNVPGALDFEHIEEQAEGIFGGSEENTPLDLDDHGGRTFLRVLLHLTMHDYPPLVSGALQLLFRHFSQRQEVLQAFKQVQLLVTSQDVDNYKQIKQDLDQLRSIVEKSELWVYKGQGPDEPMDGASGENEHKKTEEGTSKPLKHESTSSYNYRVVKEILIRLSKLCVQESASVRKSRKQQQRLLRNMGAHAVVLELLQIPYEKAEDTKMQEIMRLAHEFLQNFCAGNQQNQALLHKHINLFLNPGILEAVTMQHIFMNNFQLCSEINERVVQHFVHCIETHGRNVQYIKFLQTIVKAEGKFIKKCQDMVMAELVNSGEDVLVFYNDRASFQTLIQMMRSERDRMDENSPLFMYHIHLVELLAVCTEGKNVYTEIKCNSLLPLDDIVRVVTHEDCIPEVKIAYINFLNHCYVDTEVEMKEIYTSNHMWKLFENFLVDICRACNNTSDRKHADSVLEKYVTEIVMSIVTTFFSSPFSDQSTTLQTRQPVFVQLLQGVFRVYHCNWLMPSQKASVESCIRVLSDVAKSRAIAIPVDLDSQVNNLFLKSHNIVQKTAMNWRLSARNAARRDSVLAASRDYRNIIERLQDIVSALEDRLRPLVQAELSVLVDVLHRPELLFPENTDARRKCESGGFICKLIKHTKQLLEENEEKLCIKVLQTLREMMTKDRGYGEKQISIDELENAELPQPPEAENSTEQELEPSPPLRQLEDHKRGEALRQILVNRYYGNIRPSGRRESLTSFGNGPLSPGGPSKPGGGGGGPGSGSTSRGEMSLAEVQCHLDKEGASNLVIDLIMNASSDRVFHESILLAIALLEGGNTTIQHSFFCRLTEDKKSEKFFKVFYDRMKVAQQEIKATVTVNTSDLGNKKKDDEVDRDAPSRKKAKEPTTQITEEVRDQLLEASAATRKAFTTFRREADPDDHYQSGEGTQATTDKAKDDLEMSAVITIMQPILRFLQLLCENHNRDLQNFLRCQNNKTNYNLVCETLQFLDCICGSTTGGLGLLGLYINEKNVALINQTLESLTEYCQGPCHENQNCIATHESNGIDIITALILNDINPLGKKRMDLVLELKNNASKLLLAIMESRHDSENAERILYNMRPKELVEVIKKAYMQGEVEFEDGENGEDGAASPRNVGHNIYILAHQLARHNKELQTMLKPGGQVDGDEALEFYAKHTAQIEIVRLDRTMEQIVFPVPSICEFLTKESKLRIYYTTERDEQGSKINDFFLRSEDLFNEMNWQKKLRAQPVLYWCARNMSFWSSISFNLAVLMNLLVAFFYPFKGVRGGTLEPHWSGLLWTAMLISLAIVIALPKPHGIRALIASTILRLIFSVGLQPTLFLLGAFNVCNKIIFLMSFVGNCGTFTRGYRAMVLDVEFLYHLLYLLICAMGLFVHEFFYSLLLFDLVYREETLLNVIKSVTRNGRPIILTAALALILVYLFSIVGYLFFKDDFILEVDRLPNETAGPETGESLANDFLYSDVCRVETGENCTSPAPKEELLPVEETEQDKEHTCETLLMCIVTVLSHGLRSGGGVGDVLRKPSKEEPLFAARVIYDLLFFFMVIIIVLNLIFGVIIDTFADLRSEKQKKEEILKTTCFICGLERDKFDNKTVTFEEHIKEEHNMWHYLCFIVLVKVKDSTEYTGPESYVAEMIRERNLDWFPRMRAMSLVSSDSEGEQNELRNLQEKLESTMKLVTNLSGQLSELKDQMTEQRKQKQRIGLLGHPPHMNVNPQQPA

For the substance IP3R1, P29994 1-2750 (receptor), the fold of IP3R1 co-immunoprecipitated with Grp78, APP KO lysate against WT lysate amounted to 1.49 fold.
